The record followed here is the supplement of paper PMC9170038.

The test system of this data set is MS2 coat protein. The data set is described as follows: apparent KD of MS2 coat protein; higher = weaker reporter binding. Conditions: Eterna round: R107. The gist of the method: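 Designed RNA switches were transcribed on-chip from Illumina sequencing clusters. SNAP-549-labelled MS2 coat protein was titrated onto them in twofold steps from 0.7 or 1.5 nM to 3 µM in 100 mM Tris-HCl pH 7.5, 80 mM KCl, 4 mM MgCl2, either without or with constant ligand. Apparent KD reflects the per-design median of normalised cluster binding-curve fits.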

Setting [1] is: input ligand: theophylline 20 uM.
Setting [2] is: input ligand: theophylline 2 mM.
[3] abbreviates: input ligand: tryptophan 2.4 mM.

As for “CUGGACAUGAGGAUCACCCAUGUAAAUCCUCGAGGACCGGUACGGCCGCCACUCGAACGAGUGGCGCGCGCGCGCGCGCGCGCGC [aIa]”, the “apparent KD of MS2 coat protein” value (input ligand: arginine 13.2 mM) is 23.5 nM; the “apparent KD of MS2 coat protein” value (input ligand: none) was found to be 54.3 nM; the “apparent KD of MS2 coat protein” value under setting [1] is 142 nM; the “apparent KD of MS2 coat protein” value under setting [2] came out at 89.5 nM; the “apparent KD of MS2 coat protein” value under setting [3] was found to be 62.9 nM.

“CUUAUAGUAACUGAUACCAGUGUACUGACAUGAGGAUCACCCAUGUUGGGUUUUGUUGUACACCCUUGGCAGCAGAAUCUAUAAG [AstrosExyTheB#10]”: the “apparent KD of MS2 coat protein” value was determined as 49.2 nM (input ligand: arginine 13.2 mM), 65.7 nM under setting [1] and 58.8 nM under setting [3].

For the sequence “GACAUGAGGAUCACCCAUGUAUUGGGUGAUACCAGCCUGAAUCAUGGCCCUUGGCAGCACCGCGCUAACUUUAUGUUUGCGAACC [Mavegeceri]”, the “apparent KD of MS2 coat protein” value runs as follows: (input ligand: arginine 13.2 mM) 95 nM; under setting [1], 210 nM; under setting [3], 56.5 nM.

As for “GACAUGAGGAUCACCCAUGUUUUCUAUGAAGGAGCGUCGGAAAUGACAGGUAGGUCGCAUGGUAGGACUUGUAUCUUGUAUGUAG [EAA NP+V+V2 #10]”, the “apparent KD of MS2 coat protein” value by setting is: (input ligand: arginine 13.2 mM) 13.4 nM; under setting [1], 16.2 nM; under setting [2], 14.7 nM; under setting [3], 15.5 nM.

In the case of “GACCGAUUAUAGUGCGAUUGUCUUGUGGAAGGAGCGCAGAGGACUGCAGGUAGGUCGCCACAUGAGGAUCACCCAUGUCAGGAUU [Reinorlaan]”, the “apparent KD of MS2 coat protein” value turned out to be 39.8 nM (input ligand: arginine 13.2 mM); 46 nM (input ligand: none); 45.1 nM under setting [1]; 64.8 nM under setting [2]; 40.5 nM under setting [3].

Consider “GACGAUAUGAUACGUCAGCAAUCCUCGAAACGAGGACCGGUACGGCCGCCACUCGAGUGAUACACAUGAGGAUCACCCAUGUACC [Tryp A Ex t3]”, for which the “apparent KD of MS2 coat protein” value is 30.9 nM (input ligand: arginine 13.2 mM), 49.6 nM under setting [1] and 49.4 nM under setting [2].

In the case of “GAGGAAACUCACAUGAGGAUCACCCAUGUACGAGGACCGGUACGGCCGCCACUCGAAACCAUGGGCGGUAGUACGUGGAAGCUUG [Design 2 MOD 2]”, the “apparent KD of MS2 coat protein” value is, setting by setting: (input ligand: arginine 13.2 mM) 21.1 nM; under setting [1], 31.3 nM; under setting [2], 23.8 nM.

As for “GAGGGUGAAUCUCUGGUCCGUUUGACGGAUACCAGCGAGAGGUAUCGCCCUUGGCAGCCGACGACAUGAGGAUCACCCAUGUUAA [#08 Exclusion-TheophyllineA]”, the “apparent KD of MS2 coat protein” value was determined as 18.9 nM (input ligand: arginine 13.2 mM), 30.4 nM under setting [1] and 18 nM under setting [3].

With “GAUGAACUAUUUGAUACCAGACCACAUGAGGAUCACCCAUGUGAGUUUCGUCCUUAGCCGGUCCCUUGGCAGCAAAUAGUUUAUC [#27 Exclusion-TheophyllineB]”, the “apparent KD of MS2 coat protein” value worked out at 19.3 nM (input ligand: arginine 13.2 mM), 24.1 nM under setting [1] and 16.7 nM under setting [3].

Consider “GAUGAAGUAACUGAUACCAGUGUACUGACAUGAGGAUCACCCAUGUUGGGUUUUGUUGUACACCCUUGGCAGCAGAAUCUUUAUC [AstrosExyTheB#5]”, for which the “apparent KD of MS2 coat protein” value is, setting by setting: (input ligand: arginine 13.2 mM) 33.8 nM; under setting [1], 60.8 nM; under setting [3], 45.8 nM.

“GCACAUGAGGAUCACCCAUGUAUUACUGAAGGAGCGAGACAGAACUCAGGUAGGUCGCAGACUGCACAAUUGCGGACGACAUGGG [Exclusion Arginine A GF22]”: the “apparent KD of MS2 coat protein” value by setting is: (input ligand: arginine 13.2 mM) 14.6 nM; (input ligand: none) 31.5 nM; under setting [1], 41 nM; under setting [2], 31.2 nM; under setting [3], 34.3 nM.

In the case of “GCACCAGGUACGGAUACCAGACGUUGCCAAUUGGGUGCACAUGAGGAUCACCCAUGUUCUGUCCCUUGGCAGCCGUACCUGGUGC [EThB NP+V+V2 #5]”, the “apparent KD of MS2 coat protein” value by setting is: (input ligand: arginine 13.2 mM) 10.2 nM; (input ligand: none) 10.1 nM; under setting [1], 13.5 nM; under setting [2], 73.2 nM; under setting [3], 9.12 nM.

“GCACCAGGUACGGAUACCAGCUGCCCGAGAUACAUGAGGAUCACCCAUGUGACCUGAUUUAGCCCUUGGCAGCUGUACCUGGUGC [SSThB NP+V+V2 #1]”: the “apparent KD of MS2 coat protein” value came out at 148 nM (input ligand: arginine 13.2 mM); 333 nM (input ligand: none); 189 nM under setting [1]; 55.9 nM under setting [2]; 285 nM under setting [3].

Turning to “GCACCAGGUACGGAUACCAGCUGCUCGAGAUACAUGAGGAUCACCCAUGUGACCUGGUUUAGCCCUUGGCAGCUGUACCUGGUGC [#15 Same State - Theophylline B]”, the “apparent KD of MS2 coat protein” value runs as follows: (input ligand: arginine 13.2 mM) 16.4 nM; under setting [1], 15.3 nM; under setting [3], 17.2 nM.

Regarding “GCAUCCUAGUCGGCCGCCACUGCAACAUGAGGAUCACCCAUGUCUGUAUGUGAUCCAUGCAGUAGCAGGACCGGGACUAGGAUGC [(T1)-(M1)-(M2)-(T)''-(M)'-(T)'-(T2)_Design3_2/18/17]”, the “apparent KD of MS2 coat protein” value is, setting by setting: (input ligand: arginine 13.2 mM) 237 nM; under setting [1], 467 nM; under setting [2], 833 nM.

Take “GCAUCCUAGUCGGCCGCCACUGCAAUUGUAAUACUGCUACAUGAACAUGAGGAUCACCCAUGUAGCAGGACCGGGACUAGGAUGC [(Trp1)-(TM)''-(TM)'-(Ms2)-(Trp2)_Design9]”: the “apparent KD of MS2 coat protein” value was 80.4 nM (input ligand: arginine 13.2 mM), 185 nM under setting [1] and 222 nM under setting [2].

Take “GCAUCCUAGUCGGCCGCCACUGCAGUAGCACCUGCUACAUGGAAACAUGAGGAUCACCCAUGUAGCAGGACCGGGACUAGGAUGC [(Trp1)-(TM)''-(TM)'-(Ms2)-(Trp2)_Design8]”: the “apparent KD of MS2 coat protein” value (input ligand: arginine 13.2 mM) turned out to be 44.3 nM; the “apparent KD of MS2 coat protein” value (input ligand: none) is 276 nM; the “apparent KD of MS2 coat protein” value under setting [1] came to 733 nM; the “apparent KD of MS2 coat protein” value under setting [2] stood at 909 nM; the “apparent KD of MS2 coat protein” value under setting [3] worked out at 236 nM.

On to “GCCAUCGGCGGAAGCCGAUGGUAUACGGAAGGAGCGCACGAAAGUGCAGGUAGGUCGCUGAACAUGAGGAUCACCCAUGUAAUAA [#28 Same State - Arginine A]”, for which the “apparent KD of MS2 coat protein” value runs as follows: (input ligand: arginine 13.2 mM) 17.6 nM; (input ligand: none) 18.8 nM; under setting [1], 36.4 nM; under setting [2], 24.1 nM; under setting [3], 20.3 nM.
